Test results: publication PMC10045489 (2023)

B1: H11-H4 nanobody (VHH)
VHH: QVQLVESGGGLMQAGGSLRLSCAVSGRTFSTAAMGWFRQAPGKEREFVAAIRWSGGSAYYADSVKGRFTISRDKAKNTVYLQMNSLKYEDTAVYYCAQTHYVSYLLSDYATWPYDYWGQGTQVTVSS
B2: Nb20 nanobody (VHH)
VHH: QVQLVESGGGLVQAGGSLRLSCAVSGAGAHRVGWFRRAPGKEREFVAAIGASGGMTNYLDSVKGRFTISRDNAKNTIYLQMNSLKPQDTAVYYCAARDIETAEYIYWGQGTQVTVSS
B3: ab8 nanobody (VHH)
VHH: QVQLVESGGGLVQPGGSLRLSCAASGFTFDDYAMSWVRQAPGKGLEWIGRMYNNGRTSYNPSLKSLVTISRDNSKNTLYLQMNSLRAEDTATYYCARDNLGYRPSENLYGMDVWGQGTQVTVSS

Molecular target: full-length His-tagged SARS-CoV-2 spike protein (wild-type) (SARS-CoV-2, UniProt P0DTC2)
Test: BLI

Row | Binder | Kd [nM]
1 | B1 | ~61
2 | B2 | ~0.72
3 | B3 | ~120
